According to patent publication US20200330588A1:

Columns and labels:
Assay in all cases: flow cytometry, HEK293 cells transfected with gH alanine mutant and gL; % of gH-positive cells compared to WT
[1] = target: gH alanine mutant 484-485 transfected into HEK293 cells with gL (Human cytomegalovirus (consensus sequence; strain of the construct not stated); Human cytomegalovirus)
[2] = target: gH mutant 480-486 (consecutive alanine substitutions) transfected into HEK293 cells with gL (Human cytomegalovirus (consensus sequence; strain of the construct not stated); Human cytomegalovirus)
[3] = target: gH alanine mutant 488-489 transfected into HEK293 cells with gL (Human cytomegalovirus (consensus sequence; strain of the construct not stated); Human cytomegalovirus)
[4] = target: gH alanine mutant 478-488 (label as in Table 6)
[5] = target: gH alanine mutant 480-481 transfected into HEK293 cells with gL (Human cytomegalovirus (consensus sequence; strain of the construct not stated); Human cytomegalovirus)
[6] = target: gH alanine mutant 490-491 transfected into HEK293 cells with gL (Human cytomegalovirus (consensus sequence; strain of the construct not stated); Human cytomegalovirus)
[7] = target: gH alanine mutant 486-487 transfected into HEK293 cells with gL (Human cytomegalovirus (consensus sequence; strain of the construct not stated); Human cytomegalovirus)
[8] = target: gH mutant 485-492 (consecutive alanine substitutions) transfected into HEK293 cells with gL (Human cytomegalovirus (consensus sequence; strain of the construct not stated); Human cytomegalovirus)
[9] = target: gH alanine mutant 482-483 transfected into HEK293 cells with gL (Human cytomegalovirus (consensus sequence; strain of the construct not stated); Human cytomegalovirus)

Substance: human anti-gH monoclonal antibody MSL-109
- Avg. binding (% of mass) [1]: 86%
- Avg. binding (% of mass) [2]: 66%
- Avg. binding (% of mass) [3]: 111%
- Avg. binding (% of mass) [4]: 100%
- Avg. binding (% of mass) [5]: 87%
- Avg. binding (% of mass) [6]: 89%
- Avg. binding (% of mass) [7]: 66%
- Avg. binding (% of mass) [8]: 65%
- Avg. binding (% of mass) [9]: 92%
